In article PMC6016464, “Folding and binding pathways of BH3-only proteins are encoded within their intrinsically disordered sequence, not templated by partner proteins” (The Journal of Biological Chemistry, 2018):
Where no end group is shown, it is not given here. The star is where a group is joined. TAMRA = 5-carboxytetramethylrhodamine, CN(C)c1ccc2c(-c3ccc(C(=O)*)cc3C(=O)[O-])c3ccc(=[N+](C)C)cc-3oc2c1

T1: MCL-1 (mouse, residues 152-308) (mouse)
T1 construct: remnant of thrombin cleavage at the N-terminus of MCL-1; MCL-1, mouse, residues 152-308, UniProt P97287; source: E. coli C41 pLysS, purified (Ni2+ agarose, thrombin cleavage, ion exchange, Superdex G75 gel filtration); not shown: His6, N-terminal, cleaved
T1 chain: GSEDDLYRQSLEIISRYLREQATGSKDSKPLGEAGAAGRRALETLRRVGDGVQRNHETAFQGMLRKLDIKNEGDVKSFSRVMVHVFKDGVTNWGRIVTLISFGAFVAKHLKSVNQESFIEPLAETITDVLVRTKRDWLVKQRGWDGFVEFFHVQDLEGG

T2: A1 protein (mouse, residues 1-152, P104K C113S, used as wild type) (mouse)
T2 sequence (Q07440 1-152 with P104K C113S, looked up): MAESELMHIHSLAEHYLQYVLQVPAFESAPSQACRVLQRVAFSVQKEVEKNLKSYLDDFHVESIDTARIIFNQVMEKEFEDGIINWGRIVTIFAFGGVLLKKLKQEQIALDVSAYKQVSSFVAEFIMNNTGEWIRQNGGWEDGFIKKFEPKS

B1: BID E81A peptide, TAMRA-labelled (peptide, UniProt P70444 76-110, looked up)
chain: {TAMRA}-SESQEAIIHNIARHLAQIGDEMDHNIQPTLVRQLA
notes: BID, mouse, residues 76-110, UniProt P70444; source: synthetic peptide (Biomatik)
B2: BID I83A peptide, TAMRA-labelled (peptide, UniProt P70444 76-110, looked up)
chain: {TAMRA}-SESQEEIAHNIARHLAQIGDEMDHNIQPTLVRQLA
notes: as for B1
B3: BID I101A peptide, TAMRA-labelled (peptide, UniProt P70444 76-110, looked up)
chain: {TAMRA}-SESQEEIIHNIARHLAQIGDEMDHNAQPTLVRQLA
notes: as for B1
B4: BID E81G peptide, TAMRA-labelled (peptide, UniProt P70444 76-110, looked up)
chain: {TAMRA}-SESQEGIIHNIARHLAQIGDEMDHNIQPTLVRQLA
notes: as for B1
B5: BID L90A peptide, TAMRA-labelled (peptide, UniProt P70444 76-110, looked up)
chain: {TAMRA}-SESQEEIIHNIARHAAQIGDEMDHNIQPTLVRQLA
notes: as for B1
B6: PUMA L148A peptide (on the M144A wild type), TAMRA-labelled (peptide)
chain: {TAMRA}-RVEEEEWAREIGAQLRRAADDANAQYERRRQEEQH
B7: PUMA (A139G A150G) peptide (on the M144A wild type), TAMRA-labelled (peptide, UniProt Q99ML1 127-161, looked up)
chain: {TAMRA}-RVEEEEWAREIGGQLRRAADDLNGQYERRRQEEQH
notes: PUMA, mouse, residues 127-161, UniProt Q99ML1; Double mutant; also called A150G (A139G); source: synthetic peptide (Biomatik)
B8: PUMA L141A peptide (on the M144A wild type), TAMRA-labelled (peptide)
chain: {TAMRA}-RVEEEEWAREIGAQARRAADDLNAQYERRRQEEQH
B9: BID peptide (mouse, residues 76-110), N-terminal TAMRA (peptide, UniProt P70444 76-110, looked up)
peptide: {TAMRA}-SESQEEIIHNIARHLAQIGDEMDHNIQPTLVRQLA
notes: BID, mouse, residues 76-110, UniProt P70444; source: synthetic peptide (synthesized by Biomatik)

Molecular target: T1, MCL-1 (mouse, residues 152-308)
Experiment: fluorescence dissociation kinetics with competitor; dissociation; preformed complex of TAMRA-labelled peptide and partner protein mixed with excess unlabeled PUMA peptide as competitor; stopped-flow or Cary Eclipse spectrophotometer; 25 °C; 50 mM sodium phosphate, 0.05% (v/v) Tween 20, pH 7.0
Settings: both partners purified
Procedure, shortened: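 The dissociation rate constant (koff) was found by displacing TAMRA-labelled peptide from its preformed complex with mouse MCL-1 (residues 152–308) using a range of unlabelled competitor peptide concentrations. Experiments were run at 25 °C in 50 mM sodium phosphate, 0.05% (v/v) Tween 20, pH 7.0, on a stopped-flow instrument when kobs was above 0.03 s^−1 and on a Cary Eclipse when kobs was below 0.03 s^−1. Each fluorescence trace was fit to a single exponential, and once competitor was in sufficient excess, the kobs values that no longer depended on concentration were averaged to give koff.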
In the case of B1, the koff is reported as 0.0036 s⁻¹. B2 gave a koff of 0.014 s⁻¹. B3 showed a koff of 0.0025 s⁻¹. B4 was tested, and the koff was 0.008 s⁻¹. With B5 the koff was 1.3 s⁻¹.

Molecular target: T1, MCL-1 (mouse, residues 152-308)
Experiment: stopped-flow fluorescence kinetics; association; TAMRA-labelled peptide with folded partner at least 10-fold higher (pseudo-first-order); kon from the gradient of kobs versus partner concentration; 25 °C; 50 mM sodium phosphate, 0.05% (v/v) Tween 20, pH 7.0
Settings: both partners purified
Procedure, shortened: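 For kon, stopped-flow fluorescence traces of TAMRA-labelled peptide mixed with mouse MCL-1 (residues 152–308) were fitted to single exponentials to give kobs, and kon was taken as the slope of kobs against partner concentration. Runs used at least 10-fold partner excess at 25 °C in 50 mM sodium phosphate, 0.05% (v/v) Tween 20, pH 7.0, with 555 nm excitation and emission above 570 nm. Data before the 1 ms deadtime were removed, and at least 15 traces were averaged.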
B1 gave a kon of 6.5e+06 M⁻¹ s⁻¹. B2 gave a kon of 8.6e+06 M⁻¹ s⁻¹. With B3 the kon was 8.2e+06 M⁻¹ s⁻¹. B4 was tested, and the kon was 4.8e+06 M⁻¹ s⁻¹. In the case of B5, the kon is reported as 2.1e+06 M⁻¹ s⁻¹.

Each binder was assayed against T2, A1 protein (mouse, residues 1-152, P104K C113S, used as wild type) (mouse) (assay: fluorescence dissociation kinetics with competitor; dissociation; preformed complex of TAMRA-labelled peptide and partner protein mixed with excess unlabeled PUMA peptide as competitor; stopped-flow or Cary Eclipse spectrophotometer; 25 °C; 50 mM sodium phosphate, 0.05% (v/v) Tween 20, pH …). Settings: not given.
With B6 the koff was 0.0348 s⁻¹. B7 showed a koff of 0.0039 s⁻¹. B5 showed a koff of 0.66 s⁻¹. B8 was tested, and the koff was 1.23 s⁻¹.

Each binder was assayed against T2, A1 protein (mouse, residues 1-152, P104K C113S, used as wild type) (mouse) (assay: stopped-flow fluorescence kinetics; association; TAMRA-labelled peptide with folded partner at least 10-fold higher (pseudo-first-order); kon from the gradient of kobs versus partner concentration; 25 °C; 50 mM sodium phosphate, 0.05% (v/v) Tween 20, pH 7.0). Settings: not given.
For B6, the kon was 4.9e+06 M⁻¹ s⁻¹. Work on B7 yielded a kon of 2.78e+06 M⁻¹ s⁻¹. Binder B5 has a kon of 3.1e+06 M⁻¹ s⁻¹. For B8, the kon was 1.67e+06 M⁻¹ s⁻¹.

Molecular target: T2, A1 protein (mouse, residues 1-152, P104K C113S, used as wild type) (mouse)
Experiment: fluorescence dissociation kinetics with competitor; dissociation; preformed complex of TAMRA-labelled peptide and partner protein mixed with excess unlabeled PUMA peptide as competitor; stopped-flow or Cary Eclipse spectrophotometer; 25 °C; 50 mM sodium phosphate, 0.05% (v/v) Tween 20, pH …
Settings: not given
Remark: another data set of the same source
B1 gave a koff of 0.000213 s⁻¹. In the case of B2, the koff is reported as 0.002 s⁻¹. Work on B3 yielded a koff of 0.0002 s⁻¹. B4 was tested, and the koff was 0.000454 s⁻¹.

Molecular target: T1, MCL-1 (mouse, residues 152-308)
Experiment: stopped-flow fluorescence kinetics + other: fluorescence dissociation kinetics with competitor; Kd calculated as the ratio koff/kon of the kinetic rate constants; 25 °C; 50 mM sodium phosphate, 0.05% (v/v) Tween 20, pH 7.0
Settings: both partners purified
B1 showed a Kd of 0.55 nM. B2 gave a Kd of 1.7 nM. With B3 the Kd was 0.3 nM. B4 gave a Kd of 1.6 nM. With B5 the Kd was 610 nM.

The binders below were run against T2, A1 protein (mouse, residues 1-152, P104K C113S, used as wild type) (mouse) in the same assay as above. Settings: not given.
B6 gave a Kd of 7.1 nM. B7 showed a Kd of 1.4 nM. B1 was tested, and the Kd was 0.02 nM. Binder B2 has a Kd of 0.29 nM. In the case of B3, the Kd is reported as 0.022 nM. B4 gave a Kd of 0.047 nM. With B5 the Kd was 210 nM. With B8 the Kd was 735 nM.

Molecular target: T2, A1 protein (mouse, residues 1-152, P104K C113S, used as wild type) (mouse)
Experiment: stopped-flow fluorescence kinetics; association; TAMRA-labelled peptide with folded partner at least 10-fold higher (pseudo-first-order); kon from the gradient of kobs versus partner concentration; 25 °C; 50 mM sodium phosphate, 0.05% (v/v) Tween 20, pH 7.0
Settings: not given
Remark: another data set of the same source
Binder B1 has a kon of 1.07e+07 M⁻¹ s⁻¹. Binder B2 has a kon of 7e+06 M⁻¹ s⁻¹. Work on B3 yielded a kon of 8.6e+06 M⁻¹ s⁻¹. With B4 the kon was 9.6e+06 M⁻¹ s⁻¹.

What follows are binders tested against T2, A1 protein (mouse, residues 1-152, P104K C113S, used as wild type) (mouse) (assay: fluorescence polarisation; equilibrium binding by fluorescence anisotropy of the TAMRA-labelled peptide against partner protein concentration; anisotropy adjusted for the change in fluorescence intensity; 25 °C; 50 mM sodium phosphate, 0.05% (v/v) Tween 20, pH 7.0). Settings: not given.
B6 showed a Kd of 5.65 nM. Binder B5 has a Kd of 360 nM. With B8 the Kd was 710 nM.

Molecular target: T1, MCL-1 (mouse, residues 152-308)
Experiment: other fluorescence titration; equilibrium binding curve of TAMRA-labelled peptide, fluorescence (A.U.) against MCL-1 concentration; 50 mM sodium phosphate, 0.05% (v/v) Tween 20, pH 7.0
Settings: both partners purified
With B7 the Kd was 1.7 ± 0.2 nM.

Molecular target: T1, MCL-1 (mouse, residues 152-308)
Experiment: fluorescence polarisation; equilibrium binding by fluorescence anisotropy of the TAMRA-labelled peptide against partner protein concentration; anisotropy adjusted for the change in fluorescence intensity; 25 °C; 50 mM sodium phosphate, 0.05% (v/v) Tween 20, pH 7.0
Settings: both partners purified
B5 gave a Kd of 1200 nM.

Each binder was assayed against T3, MCL-1 (mouse, residues 152-308) (mouse, UniProt P97287 152-308) (assay: dissociation kinetics by competition (fluorescence); preformed complex of TAMRA peptide and partner protein mixed with various concentrations of unlabeled PUMA peptide as competitor; stopped-flow or spectrophotometer; 25 °C; 50 mM sodium phosphate, 0.05% (v/v) Tween 20, pH 7.0). Settings: both partners purified.
T3 construct: MCL-1, mouse, residues 152-308, UniProt P97287; source: recombinantly produced, purified (protocol in the supplemental Experimental Procedures)
B9: binds.
